Measured values taken from patent publication EP4671269A1.
Several values for one entry are separate records, joined by “and”; a condition that tells them apart may be missing. Equal values may be shown once.

Assays:
Settings in all cases: remark: other sources report otherwise
TGF-β2, P61812 [1] = target: T1, TGF-β2, P61812; assay: indirect ELISA; […] diluted 1:729
T1 chain: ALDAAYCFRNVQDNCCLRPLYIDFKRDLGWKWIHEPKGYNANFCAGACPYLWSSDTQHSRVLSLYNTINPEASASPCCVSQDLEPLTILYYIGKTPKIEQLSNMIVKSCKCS

TGF-β2, P61812 [2] = target: T1, TGF-β2, P61812; assay: indirect ELISA; […] diluted 1:27
TGF-β2, P61812 [3] = target: T1, TGF-β2, P61812; assay: indirect ELISA; […] diluted 1:3
TGF-β2, P61812 [4] = target: T1, TGF-β2, P61812; assay: indirect ELISA; […] diluted 1:81
TGF-β2, P61812 [5] = target: T1, TGF-β2, P61812; assay: indirect ELISA; […]
TGF-β2, P61812 [6] = target: T1, TGF-β2, P61812; assay: indirect ELISA; […] diluted 1:9
TGF-β2, P61812 [7] = target: T1, TGF-β2, P61812; assay: indirect ELISA, TGF-β2 coated
TGF-β2, P61812 [8] = target: T1, TGF-β2, P61812; assay: indirect ELISA; 0 (blank)
TGF-β2, P61812 [9] = target: T1, TGF-β2, P61812; assay: indirect ELISA; […] diluted 1:243

B1: TGF-βRII-mFc, P37173 24-159 (Fc fusion, UniProt P37173 24-159, looked up, not shown: a dimerising Fc or GST)
chain: IPPHVQKSVNNDMIVTDNNGAVKFPQLCKFCDVRFSTCDNQKSCMSNCSITSICEKPQEVCVAVWRKNDENITLETVCHDPKLPYHDFILEDAASPKCIMKEKKKPGETFFMCSCSSDECNDNIIFSEEYNTSNPD
For B1, the OD450 (TGF-β2, P61812 [1]) was 0.184 OD and 0.152 OD, the OD450 (TGF-β2, P61812 [2]) was 0.432 OD and 0.462 OD and the OD450 (TGF-β2, P61812 [3]) was 1.34 OD and 1.32 OD. For the same binder, the OD450 (TGF-β2, P61812 [4]) was 0.253 OD and 0.211 OD, the OD450 (TGF-β2, P61812 [5]) was 1.46 OD and 1.44 OD and the OD450 (TGF-β2, P61812 [6]) was 0.908 OD and 0.925 OD. The EC50 (TGF-β2, P61812 [7]) was 1.03 nM, the OD450 (TGF-β2, P61812 [8]) was 0.176 OD and 0.16 OD and the OD450 (TGF-β2, P61812 [9]) was 0.202 OD and 0.158 OD.
